Experimental data from article PMC7374754, “Selection of mutant µplasmin for amyloid-β cleavage in vivo” (Scientific Reports, 2020).

Molecular target: human µPlm P642A (human)
Assay: cell-based or functional assay

B1: human alpha-2 antiplasmin (α2-AP), mature (natural protein, UniProt P08697-1 40-491, looked up)
chain: NQEQVSPLTLLKLGNQEPGGQTALKSPPGVCSRDPTPEQTHRLARAMMAFTADLFSLVAQTSTCPNLILSPLSVALALSHLALGAQNHTLQRLQQVLHAGSGPCLPHLLSRLCQDLGPGAFRLAARMYLQKGFPIKEDFLEQSEQLFGAKPVSLTGKQEDDLANINQWVKEATEGKIQEFLSGLPEDTVLLLLNAIHFQGFWRNKFDPSLTQRDSFHLDEQFTVPVEMMQARTYPLRWFLLEQPEIQVAHFPFKNNMSFVVLVPTHFEWNVSQVLANLSWDTLHPPLVWERPTKVRLPKLYLKHQMDLVATLSQLGLQELFQAPDLRGISEQSLVVSGVQHQSTLELSEVGVEAAAATSIAMSRMSLSSFSVNRPFLFFIFEDTTGLPLFVGSVRNPNPSAPRELKEQQDSPGNKDFLQSLKGFPRGDKLFGPDLKLVPPMEEDYPQFGSPK
IC50 of α2-AP inhibition of amidolytic activity, fold relative to the wild-type: 2 fold of wild type
